Laboratory results from US20260226173A1 (Memorial Sloan Kettering, published 2026).
Numbering of substitutions follows the chain as printed.

B1: ESK2 clone 15 (Clone 15 anti-WTMC antibody moiety), phage clone (scFv, V domains shown)
VH: QVQLVQSGAEVKKPGASVKVSCKASGYTFTDFYIHWVRQAPGQGPEWMGWVNPKSGGTNYAQKFQGRVTMTRDTSISTAYMALSRLRSDDTAVYYCARSWQGMSWESVEDVWGQGTLVTVSS
VL: QSVLTQPPSVSGAPGQRVTISCTGSSSNIGAGYDVHWYQQLPGTAPKLLIYGNSNRPSGVPDRFSGSKSGTSASLAITGLQAEDEADYYCQSYDSSLSGAVFGTGTKVTVLG
notes: Human scFv on phage (E-ALPHA library); also called ESK2-15
B2: ESK2 clone 1 (Clone 1 anti-WTMC antibody moiety), phage clone (scFv, V domains shown)
VH: EVQLVQSGAEVKKPGASVKVSCKASGYNFTSYGISWVRQAPGQGLEWMGWISAYNGNTNYAQKLQGRVTMTTDTSTSTAYMELRSLRSDDTAVYYCARDWDYDFLTGWDGMDVWGQGTTVTVSS
VL: QSVVTQPPSVSAAPGQKVTISCSGSSSNIGNNYVSWYQQLPGTAPKLLIYYNNKRPSGIPDRFSGSKSGTSATLGITGLQTGDEADYYCGTWDSSLSAGQVFGGGTKLTVLG
notes: Human scFv on phage (E-ALPHA library); also called ESK2-1
B3: ESK2 clone 26 (Clone 26 anti-WTMC antibody moiety), phage clone (scFv, V domains shown)
VH: QVQLVQSGGGLVQPGRSLRLSCAASGFTFDDYAMHWVRQAPGKGLEWVSGISWNSGSIGYADSVKGRFTISRDNAKNSLYLQMNSLRPEDTAVYYCARGYMGHNWYDWGQGTLVTVSS
VL: LPVLTQPPSVSVAPGKTARITCGGNDIGSKAVHWYQQKPGQAPVLVIYYNRDRPSGIPERFSGSNSGNTATLTISRVEAGDEADYYCQVWDSFSDHYVFGTGTKVTVLG
notes: Human scFv on phage (E-ALPHA library); also called ESK2-26
B4: ESK2 clone 32 (Clone 32 anti-WTMC antibody moiety), phage clone (scFv, V domains shown)
VH: QVQLVQSGAEVKKPGSSVKVSCKASGDTFSSYAVSWVRQAPGQGLEWMGAINLIFGTVKYAQKFQGRITITADESTSTAYMELSSLRSEDTAVYYCARGHWSQVWWTSHSYDLWGQGTLVTVSS
VL: B3 VL with L1Q, P2A, D26N, A31S, I47V, Y49D, N50D, R51S, F93S
notes: Human scFv on phage (E-ALPHA library); also called ESK2-32
B5: ESK2 clone 14 (Clone 14 anti-WTMC antibody moiety), phage clone (scFv, V domains shown)
VH: EVQLVQSGAEVKKPGASVKISCKTSGYTFTDYYLHWVRQAPVQGLEWMGYVDPYDGYTHYAQNFQGRVTMTTDTSTSTAYMELSSLRSEDTAVYYCARFSGTRQDSHWGQGTLVTVSS
VL: QSALTQPPSASGSPGQSVTISCTGTSSDVGGYNYVSWYQQHPGKAPKLMIYEVSKRPSGVPDRFSGSKSGNTASLTVSGLQAEDEADYYCSSYAGSNNLAVVFGGGTKLTVLG
notes: Human scFv on phage (E-ALPHA library); also called ESK2-14
B6: ESK2 clone #18 BiTE (bispecific antibody, V domains shown)
VH: not shown
VL: QSVLTQPPSVSGAPGQRVSISCTGSSSNIGAGYVVHWYQHLPGTVPKLLIYDNSNRPSGVPDRFSGSNSGSSASLAVTGLQAEDEADYYCQSYDSSLSGWVFGGGTKLTVLG
notes: made in CHO cells; also called ESK2-#18 BiTE; ESK2-BiTE clone #18
B7: ESK2 clone 36 (Clone 36 anti-WTMC antibody moiety), phage clone (scFv, V domains shown)
VH: EVQLVQSGAEVKKPGESLRISCKDSGYSFTSYWISWVRQMPGKGLEWMGRIDPSDSYTNYSPSFQGHVTISADKSISTAYLQWSSLKASDTAMYYCARMEIYSPDYWGQGTLVTVSS
VL: DIQLTQSPSSLSASVGDRVTISCRASQSINKYLNWYQQKPGEAPKLLIYGALRLQSGVPSRFSGSGSGTDYALTITSLQPEDFATYYCQQSYSTPLTFGGGTKVDIKR
notes: Human scFv on phage (E-ALPHA library); also called ESK2-36
B8: ESK2 clone 11 (Clone 11 anti-WTMC antibody moiety), phage clone (scFv, V domains shown)
VH: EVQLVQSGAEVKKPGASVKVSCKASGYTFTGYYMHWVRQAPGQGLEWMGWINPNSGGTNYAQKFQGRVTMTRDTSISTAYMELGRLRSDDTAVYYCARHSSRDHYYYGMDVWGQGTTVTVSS
VL: QSVVTQPPSVSAAPGQRVTISCSGGSSNIGNNYVSWYQHLPGTAPKLLIYENNLKRPSGIPDRFSGSKSGTSATLGITGLQTGDEADYYCGTWDSSLNAGVFGGGTKLTVLG
notes: Human scFv on phage (E-ALPHA library); also called ESK2-11
B9: ESK2 clone 17 (Clone 17 anti-WTMC antibody moiety), phage clone (scFv, V domains shown)
VH: EVQLVQSGAEVKKPGESLKISCKGSGYSFTSYWIGWVRQMPGKGLEWMGIIYPGDSDTRYSPSFQGQVTISADKSISTAYLQWSSLKASDTAVYYCARGGYIYYDAWGQGTLVTVSS
VL: SYVLTQPPSVSEAPRQRVTISCSGSRSNVGNNAVSWYQHLPGKAPKLLIYYDDLMPSGVSDRFSGSKSGTSASLAISGLQSEDEADYYCAAWDDSLNGLVFGGGTKLTVLG
notes: Human scFv on phage (E-ALPHA library); also called ESK2-17
B10: ESK2 clone #34 BiTE (bispecific antibody, V domains shown)
VH: QVQLVQSGTEVRKPGASLKVSCTTSGYIFTGYYIHWVRQVPGQGLEWMGWINPNSGVTEFAQGFQGRITMTRDTSTSTVYMELSRLTSDDTAVYYCAREGVWGYYDSWGQGTLVTVSS
VL: SSELTQDPAVSVALGQTVRITCQGDSLRSYYASWYQQKPGQAPVLVIYDKNNRPSGIPDRFSGSSSGNTASLTITGAQAEDEADYYCNSRDSSGNHHVVFGGGTKLTVLG
notes: made in CHO cells; also called ESK2-#34 BiTE
B11: ESK2 clone 30 (Clone 30 anti-WTMC antibody moiety), phage clone (scFv, V domains shown)
VH: QVQLQESGGGLVQPGGSLRLSCAASGFTFSSYWMHWVRQAPGKGLVWVSRINSDGSSTSYADSVKGRFTISRDNAKNTLYLQMNSLRAEDTAVYYCARSGYYMSDIWGQGTLVTVSS
VL: NFMLTQPPSLSVAPGKTATITCGGNNIGSKSVHWYQQKPGQAPVLVISYDSDRPSGIPERFSGSKSGNTATLTISRVEAGDEADYYCQVWDSSSDQYVFGSGTKVTVLG
notes: Human scFv on phage (E-ALPHA library); also called ESK2-30
B12: ESK2 clone 10 (Clone 10 anti-WTMC antibody moiety), phage clone (scFv, V domains shown)
VH: EVQLVESGGGVVQPGGSLRLSCAASGFTFDDYAMHWVRQAPGKGLEWVSLISGDGGSTYYADSVKGRFTISRDNSKNSLYLQMNSLRTEDTALYYCAKDMVAAAGWNPYYYYYGMDVWGQGTTVTVSS
VL: NFMLTQPHSVSESPGKTVTISCTRSSGGIATNYVQWYQQRPGNAPTAVIYVDNERPSGVPERFSGSIDTSSNSASLTISGLETEDEADYYCQSYDSNNHVVFGGGTKVTVLG
notes: Human scFv on phage (E-ALPHA library); also called ESK2-10
B13: ESK2 clone 12 (Clone 12 anti-WTMC antibody moiety), phage clone (scFv, V domains shown)
VH: EVQLVESGGGLVQPGGSLRLSCVVSGITVSNNYMTWVRQAPGKGLEWVSVIYSDGSTYYADSVRGRFTISRDISKNTVFLQMNSLRAEDTAMYYCASDKVAVAWTDGLDSWGQGTMVTVSS
VL: SSELTQDPTVSVALGQTVRITCQGDSLRSYYGGWYQQKPGQAPILVFHGQTNRPSGIPDRFSGSSSGNTVSLTITGAQAEDEADYYCSSRDSSGNHWVFGGGTKLTVLG
notes: Human scFv on phage (E-ALPHA library); also called ESK2-12

Key:
[1] = biological target: T1, WT1 RMF (…)/HLA-A2 complex on cells (human); experiment: flow cytometry, phage clones on RMF-pulsed T2 cells
T1 construct: On T2 cells pulsed with the peptide, on cells expressing the RMF minigene, or naturally presented on WT1+/HLA-A2+ tumour cells; also called RMF/HLA-A2; WT1 RMF/A2 complex

[2] = biological target: T2, HLA-A2 on T2 cells alone (not pulsed with peptide) (human); experiment: flow cytometry, phage clones on T2 cells
T2 construct: TAP-deficient HLA-A2+ T2 cells with no peptide added; Also used as the HLA-A2 that pulsed peptides stabilise; also called T2 alone; T2 cells left unpulsed

[3] = biological target: T3, biotinylated WT1 RMF pMHC complex (human); experiment: SPR (Biacore), biotinylated pMHC on CAP chip, BiTE as analyte 150 to 4.6875 nM, 1:1 binding model; clone #18 BiTE
T3 construct: Soluble biotinylated complex loaded on the Biacore CAP chip; also called HLA-A2-WT1 RMF complex

[4] = biological target: T3, biotinylated WT1 RMF pMHC complex; experiment: SPR (Biacore), biotinylated pMHC on CAP chip, BiTE as analyte 150 to 4.6875 nM, 1:1 binding model; clone #34 BiTE
[5] = biological target: T4, TSTP1-10-mer (…)/HLA-A2 complex on T2 cells (human); experiment: flow cytometry, T2 cells alone or pulsed with peptide, stained with BiTE at 1 µg/ml, MFI
T4 construct: Potential off-target peptide pulsed onto T2 cells; also called Tyrosyl protein sulfotransferase 1 peptide

Binder	binding result [1]	binding result [2]	Kd [3] [nM]	Kd [4] [nM]	binding result [5]
B1	binds	no binding	–	–	–
B2	binds	no binding	–	–	–
B3	binds	no binding	–	–	–
B4	binds	no binding	–	–	–
B5	–	no binding	–	–	–
B6	–	–	3	–	–
B7	binds	no binding	–	–	–
B8	–	no binding	–	–	–
B9	binds	no binding	–	–	–
B10	–	–	–	1.5	no binding (tested: 1 µg/ml)
B11	binds	no binding	–	–	–
B12	binds	no binding	–	–	–
B13	binds	no binding	–	–	–
